IntAct's records for PubMed 9697699

B1: Serine hydrolase RBBP9 (Rattus norvegicus (Rat)), O88350 (parent)
chain: MASPTKAVIVPGNGGGDVATHGWYGWVRKGLEQIPGFQCLAKNMPDPITARESIWLPFMETELHCDEKTIIIGHSSGAIAAMRYAETHQVYALILVSAYTSDLGDENERASGYFSRPWQWEKIKANCPHIIQFGSTDDPFLPWKEQQEVADRLDAKLYKFTDRGHFQNTEFHELIRVVKSMLTPAL
partner: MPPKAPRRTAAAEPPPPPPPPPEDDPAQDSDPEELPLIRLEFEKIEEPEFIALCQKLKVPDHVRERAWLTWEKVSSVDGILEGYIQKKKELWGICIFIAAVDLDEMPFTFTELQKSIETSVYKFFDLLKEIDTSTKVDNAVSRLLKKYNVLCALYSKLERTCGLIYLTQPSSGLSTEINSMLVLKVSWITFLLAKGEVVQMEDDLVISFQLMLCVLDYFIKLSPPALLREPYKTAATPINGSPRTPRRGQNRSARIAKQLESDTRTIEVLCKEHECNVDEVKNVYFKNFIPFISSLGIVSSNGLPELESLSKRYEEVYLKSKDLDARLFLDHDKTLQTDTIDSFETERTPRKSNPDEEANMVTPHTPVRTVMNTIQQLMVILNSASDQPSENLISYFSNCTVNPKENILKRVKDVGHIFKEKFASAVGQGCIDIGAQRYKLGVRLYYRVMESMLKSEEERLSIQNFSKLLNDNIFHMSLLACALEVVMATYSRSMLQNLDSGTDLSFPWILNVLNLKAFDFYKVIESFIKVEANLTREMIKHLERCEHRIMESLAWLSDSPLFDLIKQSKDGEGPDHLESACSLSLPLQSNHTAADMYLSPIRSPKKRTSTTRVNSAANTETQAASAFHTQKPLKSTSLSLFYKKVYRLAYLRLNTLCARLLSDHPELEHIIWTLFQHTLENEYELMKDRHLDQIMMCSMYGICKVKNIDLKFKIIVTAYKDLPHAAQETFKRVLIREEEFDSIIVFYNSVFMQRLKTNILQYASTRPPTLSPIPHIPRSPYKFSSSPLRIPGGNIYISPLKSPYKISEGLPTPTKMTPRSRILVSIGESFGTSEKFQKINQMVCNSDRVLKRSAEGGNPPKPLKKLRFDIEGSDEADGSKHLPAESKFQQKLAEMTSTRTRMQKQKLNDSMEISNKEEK

Variants of: B1
Conditions: with rb_rat Rb1, P33568

| effect of a mutation on the interaction | Variant |
| --- | --- |
| disrupting interaction | L63E |
